Test results as given in patent publication US20220305128.

Tested on: NF-kB (endogenous, A549 cells) (Homo sapiens)
Test: cell_activity
Details: A549 MTT, 1 pmol RNA transfected; 89% day 1; indirect readout

AAAAAAAAAAGAUCUUGAAACUGUUUUAAGGUUGGCCGAUCUUAAAAAA [NF-kB aptamer, circular RNA]
activity (% viability day 2): 86
